Experiment [1] concerns the target T1, HBsAg recombinant protein (hepatitis B virus).
T1 chain: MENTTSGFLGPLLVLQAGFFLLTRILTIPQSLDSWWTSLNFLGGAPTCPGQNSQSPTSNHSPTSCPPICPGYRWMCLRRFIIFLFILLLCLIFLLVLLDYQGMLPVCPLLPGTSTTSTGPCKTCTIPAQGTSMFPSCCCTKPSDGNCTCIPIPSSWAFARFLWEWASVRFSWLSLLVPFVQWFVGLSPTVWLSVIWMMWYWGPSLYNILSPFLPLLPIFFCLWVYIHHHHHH
Briefly: ELISA, recombinant protein. The method, then: (§1) Anti-HBsAg/anti-CD3 bispecific antibodies generated in Example 1 are analyzed by standard ELISA techniques for their binding properties to HBsAg, human CD3E, and rhesus CD3ε recombinant protein, respectively.
Background: In an ELISA, binding on a coated surface is turned into a signal by an enzyme label.

Experiment [2] deals with T2, human CD3ε recombinant protein (human, UniProt P07766 23-126).
T2 construct: also called human CD3E; huCD3ε
T2 sequence (P07766 23-126 limits assumed): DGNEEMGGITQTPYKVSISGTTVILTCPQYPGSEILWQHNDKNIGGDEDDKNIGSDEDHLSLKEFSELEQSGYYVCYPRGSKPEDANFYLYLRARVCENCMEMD
Briefly: ELISA, recombinant protein. The method, then:
as §1

For experiment [3], the target named is T3, rhesus CD3ε recombinant protein (rhesus).
T3 construct: also called rhesus CD38 [sic]
Briefly: ELISA, recombinant protein. As for the experimental part: as §1

Experiment [4] has as its target T1, HBsAg recombinant protein. Kind of experiment: SPR (Biacore), bsAb on protein A chip, antigen in flow. The method, then:
(§2) Binding affinity of anti-HBsAg/anti-CD3 constructs to HBsAg and human/cynomolgus CD3ε is characterized by SPR using Biacore […] (GE Healthcare). Specifically, the anti-HBsAg/anti-CD3 bispecific antibodies were immobilized on protein A chip at a flow rate of 10 μL/min, and gradient dilution of huCD3ε, cynoCD3ε, or HBsAg antigen was used as the mobile phase. The binding condition was 10 μL/min×180 s. The dissociation condition was 10 μL/min×400 s and the regeneration conditions were 30 μL/min×30 s at pH1.5 Gly. FIG. 10 and FIG. 11 show the kinetic curves of bsAb-2-5 and bsAb-2-6 constructs bind to human and cynomolgus CD3 recombinant proteins, respectively. FIG. 12 show the kinetic curves of bsAb2-5 and bsAb2-6 constructs bind to HBsAg.

Experiment [5] concerns the target T2, human CD3ε recombinant protein. The description is as above. As for the experimental part:
as §2

In experiment [6] the target is T4, cynomolgus CD3ε recombinant protein (cynomolgus, UniProt Q95LI5 22-117).
T4 construct: also called cynoCD3ε; cynomolgus CD38 [sic]
T4 sequence (looked up): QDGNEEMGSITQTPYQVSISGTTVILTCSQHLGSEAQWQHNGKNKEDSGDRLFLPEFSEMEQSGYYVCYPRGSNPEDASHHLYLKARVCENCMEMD
The description is as above. As for the experimental part:
as §2

B1: BsAb2-6-015 (bispecific antibody)
heavy: not shown
light: QTVVTQEPSFSVSPGGTVTLTCRSSTGAVTTSNYANWVQQTPGQAPRGLIGGTNKRAPGVPDRFSGSILGDKAALTITGAQADDESDYYCALWYSNLWVFGGGTKLTVLRTVAAPSVFIFPPSDEQLKSGTASVVCLLNNFYPREAKVQWKVDNALQSGNSQESVTEQDSKDSTYSLSSTLTLSKADYEKHKVYACEVTHQGLSSPVTKSFNRGEC
notes: also called VH3VL5
Usually EC50 stands for the concentration that produces a half-maximal response. On to B1, for which the 50% effective concentration (EC50) in experiment [1] came to 0.33 nM; in experiment [2], 0.19 nM; in experiment [3], 0.18 nM.

B2: BsAb2-6-020 (bispecific antibody)
heavy: not shown
light: QTVVTQEPSFSVSPGGTVTLTCRSSTGAVTTSNYANWVQQTPGQAPRGLIGGTNKRAPGVPDRFSGSILGDKAALTITGAQADDESDYYCALWYSNLWVFGGGTKLTVLRTVAAPSVFIFPPSDEQLKSGTASVVCLLNNFYPREAKVQWKVDNALQSGNSQESVTEQDSKDSTYSLSSTLTLSKADYEKHKVYACEVTHQGLSSPVTKSFNRGEC
notes: also called VH4VL5
B2: the EC50 in experiment [1] was 0.56 nM; in experiment [2] it was 0.32 nM; in experiment [3], 0.12 nM.

B3: BsAb2-6-001 (bispecific antibody)
heavy: not shown
light: QTVVTQEPSLTVSPGGTVTLTCRSSTGAVTTSNYANWVQQKPGQAPRALIGGTNKRAPWTPARFSGSLLGDKAALTLSGVQPEDEAEYYCALWYSNLWVFGGGTKLTVLRTVAAPSVFIFPPSDEQLKSGTASVVCLLNNFYPREAKVQWKVDNALQSGNSQESVTEQDSKDSTYSLSSTLTLSKADYEKHKVYACEVTHQGLSSPVTKSFNRGEC
notes: also called VH1VL1; SCG2-6-001
In general, Kd refers to the free concentration of one partner at which half of the binding sites on the other are occupied at equilibrium, for simple one-to-one binding. Turning to B3, the 50% effective concentration (EC50) in experiment [1] amounted to 0.5 nM; in experiment [3], 0.29 nM. Moreover, in experiment [4], the dissociation constant (Kd) came to 0.0491 nM.

B4: BsAb2-6-016 (bispecific antibody)
heavy: not shown
light: QTVVTQEPSLTVSPGGTVTLTCRSSTGAVTTSNYANWVQQKPGQAPRALIGGTNKRAPWTPARFSGSLLGDKAALTLSGVQPEDEAEYYCALWYSNLWVFGGGTKLTVLRTVAAPSVFIFPPSDEQLKSGTASVVCLLNNFYPREAKVQWKVDNALQSGNSQESVTEQDSKDSTYSLSSTLTLSKADYEKHKVYACEVTHQGLSSPVTKSFNRGEC
notes: also called VH4VL1; SCG2-6-016
For B4, the concentration for a half-maximal effect (EC50) in experiment [1] was 0.71 nM; in experiment [2], 0.8 nM; in experiment [3], 0.36 nM. For the same molecule, the Kd in experiment [4] is 0.054 nM; in experiment [5], 35.3 nM; in experiment [6], 36 nM.

B5: BsAb2-6-011 (bispecific antibody)
heavy: not shown
light: QTVVTQEPSLTVSPGGTVTLTCRSSTGAVTTSNYANWVQQKPGQAPRALIGGTNKRAPWTPARFSGSLLGDKAALTLSGVQPEDEAEYYCALWYSNLWVFGGGTKLTVLRTVAAPSVFIFPPSDEQLKSGTASVVCLLNNFYPREAKVQWKVDNALQSGNSQESVTEQDSKDSTYSLSSTLTLSKADYEKHKVYACEVTHQGLSSPVTKSFNRGEC
notes: also called VH3VL1; SCG2-6-011
Consider B5, for which the values for the 50% effective concentration (EC50) in experiment [1], in experiment [2] and in experiment [3] were 0.44 nM, 0.66 nM and 0.34 nM, respectively. Also, the dissociation constant (Kd) in experiment [4] was determined as 0.375 nM; in experiment [5], 29.2 nM.

B6: BsAb2-5-011 (bispecific antibody)
heavy: not shown
light: QTVVTQEPSLTVSPGGTVTLTCRSSTGAVTTSNYANWVQQKPGQAPRALIGGTNKRAPWTPARFSGSLLGDKAALTLSGVQPEDEAEYYCALWYSNLWVFGGGTKLTVLRTVAAPSVFIFPPSDEQLKSGTASVVCLLNNFYPREAKVQWKVDNALQSGNSQESVTEQDSKDSTYSLSSTLTLSKADYEKHKVYACEVTHQGLSSPVTKSFNRGEC
notes: also called VH3VL1; SCG2-5-011
For B6, the results for the EC50 in experiment [1], in experiment [2] and in experiment [3] were 0.2 nM, 1.85 nM and 1.99 nM, respectively. The Kd in experiment [4] stood at 0.0932 nM; in experiment [5], 12.4 nM.

B7: BsAb2-6-021 (bispecific antibody)
heavy: not shown
light: QTVVTQEPSLTVSPGGTVTLTCRSSTGAVTTSNYANWVQQKPGQAPRALIGGTNKRAPWTPARFSGSLLGDKAALTLSGVQPEDEAEYYCALWYSNLWVFGGGTKLTVLRTVAAPSVFIFPPSDEQLKSGTASVVCLLNNFYPREAKVQWKVDNALQSGNSQESVTEQDSKDSTYSLSSTLTLSKADYEKHKVYACEVTHQGLSSPVTKSFNRGEC
notes: also called VH5VL1; SCG2-6-021
B7: the values for the EC50 in experiment [1] and in experiment [3] were 0.8 nM and 0.83 nM, respectively. Also, the Kd in experiment [4] stood at 0.348 nM; in experiment [6], 148 nM.

B8: BsAb2-5-012 (bispecific antibody)
heavy: not shown
light: QTVVTQEPSLTVSPGGTVTLTCRSSTGAVTTSNYANWVQQKPGQAPRGLIGGTNKRAPGTPARFSGSLLGDKAALTLSGVQPEDEAEYYCALWYSNLWVFGGGTKLTVLRTVAAPSVFIFPPSDEQLKSGTASVVCLLNNFYPREAKVQWKVDNALQSGNSQESVTEQDSKDSTYSLSSTLTLSKADYEKHKVYACEVTHQGLSSPVTKSFNRGEC
notes: also called VH3VL2
For the molecule B8, the EC50 in experiment [1] stood at 0.16 nM; in experiment [2], 0.32 nM; in experiment [3], 0.24 nM.

B9: BsAb2-6-006 (bispecific antibody)
heavy: not shown
light: QTVVTQEPSLTVSPGGTVTLTCRSSTGAVTTSNYANWVQQKPGQAPRALIGGTNKRAPWTPARFSGSLLGDKAALTLSGVQPEDEAEYYCALWYSNLWVFGGGTKLTVLRTVAAPSVFIFPPSDEQLKSGTASVVCLLNNFYPREAKVQWKVDNALQSGNSQESVTEQDSKDSTYSLSSTLTLSKADYEKHKVYACEVTHQGLSSPVTKSFNRGEC
notes: also called VH2VL1; SCG2-6-006
Regarding B9, the results for the concentration giving a half-maximal response (EC50) in experiment [1] and in experiment [3] were 0.31 nM and 0.76 nM, respectively. Moreover, the Kd in experiment [4] stood at 0.00116 nM; in experiment [6], 9.23 nM.

B10: BsAb2-6-018 (bispecific antibody)
heavy: not shown
light: QAVVTQEPSLTVSPGGTVTLTCRSSTGAVTTSNYANWVQQKPGQAPRGLIGGTNKRAPGTPARFSGSLLGDKAALTLSGVQPEDEAEYFCALWYSNLWVFGGGTKLTVLRTVAAPSVFIFPPSDEQLKSGTASVVCLLNNFYPREAKVQWKVDNALQSGNSQESVTEQDSKDSTYSLSSTLTLSKADYEKHKVYACEVTHQGLSSPVTKSFNRGEC
notes: also called VH4VL3
Regarding B10, the EC50 in experiment [1] turned out to be 0.73 nM; in experiment [2], 0.5 nM; in experiment [3], 0.16 nM.

B11: BsAb2-6-026 (bispecific antibody)
heavy: not shown
light: QTVVTQEPSLTVSPGGTVTLTCRSSTGAVTTSNYANWVQQKPGQAPRALIGGTNKRAPWTPARFSGSLLGDKAALTLSGVQPEDEAEYYCALWYSNLWVFGGGTKLTVLRTVAAPSVFIFPPSDEQLKSGTASVVCLLNNFYPREAKVQWKVDNALQSGNSQESVTEQDSKDSTYSLSSTLTLSKADYEKHKVYACEVTHQGLSSPVTKSFNRGEC
notes: also called VH6VL1; SCG2-6-026
As to B11, the EC50 in experiment [1] is 0.69 nM; in experiment [3], 0.63 nM. For the same molecule, the results for the equilibrium dissociation constant (Kd) in experiment [4] and in experiment [6] were 0.623 nM and 97.4 nM, respectively.

B12: BsAb2-5-018 (bispecific antibody)
heavy: not shown
light: QAVVTQEPSLTVSPGGTVTLTCRSSTGAVTTSNYANWVQQKPGQAPRGLIGGTNKRAPGTPARFSGSLLGDKAALTLSGVQPEDEAEYFCALWYSNLWVFGGGTKLTVLRTVAAPSVFIFPPSDEQLKSGTASVVCLLNNFYPREAKVQWKVDNALQSGNSQESVTEQDSKDSTYSLSSTLTLSKADYEKHKVYACEVTHQGLSSPVTKSFNRGEC
notes: also called VH4VL3
As to B12, the half-maximal effective concentration (EC50) in experiment [1] turned out to be 0.12 nM; in experiment [2] it was 0.33 nM; in experiment [3], 0.24 nM.

B13: BsAb2-6-017 (bispecific antibody)
heavy: not shown
light: QTVVTQEPSLTVSPGGTVTLTCRSSTGAVTTSNYANWVQQKPGQAPRGLIGGTNKRAPGTPARFSGSLLGDKAALTLSGVQPEDEAEYYCALWYSNLWVFGGGTKLTVLRTVAAPSVFIFPPSDEQLKSGTASVVCLLNNFYPREAKVQWKVDNALQSGNSQESVTEQDSKDSTYSLSSTLTLSKADYEKHKVYACEVTHQGLSSPVTKSFNRGEC
notes: also called VH4VL2; SCG2-6-017
For B13, the EC50 in experiment [1] worked out at 0.6 nM; in experiment [2] it was 0.4 nM; in experiment [3] it was 0.15 nM. The Kd in experiment [4] was 0.0321 nM; in experiment [5] it was 0.851 nM; in experiment [6], 0.737 nM.

B14: BsAb2-5-013 (bispecific antibody)
heavy: not shown
light: QAVVTQEPSLTVSPGGTVTLTCRSSTGAVTTSNYANWVQQKPGQAPRGLIGGTNKRAPGTPARFSGSLLGDKAALTLSGVQPEDEAEYFCALWYSNLWVFGGGTKLTVLRTVAAPSVFIFPPSDEQLKSGTASVVCLLNNFYPREAKVQWKVDNALQSGNSQESVTEQDSKDSTYSLSSTLTLSKADYEKHKVYACEVTHQGLSSPVTKSFNRGEC
notes: also called VH3VL3
As to B14, the EC50 in experiment [1] came to 0.17 nM; in experiment [2], 0.33 nM; in experiment [3], 0.26 nM.

For the origin of these results see patent publication US20250382352A1 (SCG CELL THERAPY PTE, published 2025).
